From PMC2847587

What was measured:
Test in all cases: immunodepletion
[1] = biological target: MHF1 (FANCM-associated Histone Fold protein 1) (human (endogenous in HeLa)) (UniProt Q8N2Z9)
[2] = biological target: FAAP24 (human (endogenous in HeLa)) (UniProt Q9BTP7)
[3] = biological target: FANCA (human (endogenous in HeLa)) (UniProt O15360)
[4] = biological target: MHF2 (FANCM-associated Histone Fold protein 2) (human (endogenous in HeLa)) (UniProt A8MT69); conditions: remark: other sources report otherwise
Chain of MHF2 (FANCM-associated Histone Fold protein 2) (human (endogenous in HeLa)) (A8MT69 whole entry): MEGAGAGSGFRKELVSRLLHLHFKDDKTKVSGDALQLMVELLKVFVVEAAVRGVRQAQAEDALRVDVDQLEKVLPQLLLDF

Chain of FAAP24 (human (endogenous in HeLa)) (Q9BTP7 whole entry): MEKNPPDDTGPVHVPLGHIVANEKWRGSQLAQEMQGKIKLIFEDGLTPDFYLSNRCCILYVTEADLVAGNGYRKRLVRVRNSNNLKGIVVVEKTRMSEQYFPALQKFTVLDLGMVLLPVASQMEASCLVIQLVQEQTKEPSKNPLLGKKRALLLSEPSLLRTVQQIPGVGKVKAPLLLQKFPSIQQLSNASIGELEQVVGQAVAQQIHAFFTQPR
Chain of FANCA (human (endogenous in HeLa)) (O15360 whole entry): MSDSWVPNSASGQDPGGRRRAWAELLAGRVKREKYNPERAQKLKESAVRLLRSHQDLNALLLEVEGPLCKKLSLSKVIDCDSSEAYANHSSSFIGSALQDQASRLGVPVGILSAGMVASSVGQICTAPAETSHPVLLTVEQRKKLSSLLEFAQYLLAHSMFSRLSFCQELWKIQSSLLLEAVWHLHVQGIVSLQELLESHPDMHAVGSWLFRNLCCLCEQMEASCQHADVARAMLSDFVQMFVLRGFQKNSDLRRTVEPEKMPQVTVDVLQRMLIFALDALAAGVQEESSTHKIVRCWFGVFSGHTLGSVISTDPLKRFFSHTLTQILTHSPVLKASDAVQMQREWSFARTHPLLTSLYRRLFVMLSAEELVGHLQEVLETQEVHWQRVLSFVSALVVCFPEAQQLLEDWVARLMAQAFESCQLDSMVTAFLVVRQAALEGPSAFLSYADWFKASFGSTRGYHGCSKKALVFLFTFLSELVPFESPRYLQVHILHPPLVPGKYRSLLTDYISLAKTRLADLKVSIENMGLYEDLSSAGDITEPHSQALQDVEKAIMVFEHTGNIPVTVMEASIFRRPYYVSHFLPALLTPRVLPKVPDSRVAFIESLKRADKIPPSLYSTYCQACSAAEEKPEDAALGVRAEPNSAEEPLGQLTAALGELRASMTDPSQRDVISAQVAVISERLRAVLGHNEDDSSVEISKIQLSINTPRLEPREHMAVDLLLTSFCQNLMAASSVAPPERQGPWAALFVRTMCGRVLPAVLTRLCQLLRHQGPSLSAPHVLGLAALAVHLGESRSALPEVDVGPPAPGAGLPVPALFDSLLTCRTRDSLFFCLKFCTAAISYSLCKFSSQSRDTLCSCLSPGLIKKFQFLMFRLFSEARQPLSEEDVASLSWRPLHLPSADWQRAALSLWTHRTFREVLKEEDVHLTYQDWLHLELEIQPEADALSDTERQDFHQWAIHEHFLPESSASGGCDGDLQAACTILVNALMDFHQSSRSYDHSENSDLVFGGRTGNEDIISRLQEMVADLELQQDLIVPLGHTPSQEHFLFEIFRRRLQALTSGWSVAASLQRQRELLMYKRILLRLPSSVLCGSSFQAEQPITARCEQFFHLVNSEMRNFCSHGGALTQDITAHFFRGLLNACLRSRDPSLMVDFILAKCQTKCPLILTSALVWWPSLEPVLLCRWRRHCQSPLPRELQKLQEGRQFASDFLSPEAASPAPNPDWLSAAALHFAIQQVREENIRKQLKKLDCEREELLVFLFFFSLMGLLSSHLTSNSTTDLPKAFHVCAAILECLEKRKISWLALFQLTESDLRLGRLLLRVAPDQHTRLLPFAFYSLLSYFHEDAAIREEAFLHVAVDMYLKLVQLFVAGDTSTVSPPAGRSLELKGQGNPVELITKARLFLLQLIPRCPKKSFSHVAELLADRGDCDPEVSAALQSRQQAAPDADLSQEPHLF
Chain of MHF1 (FANCM-associated Histone Fold protein 1) (human (endogenous in HeLa)) (Q8N2Z9 whole entry): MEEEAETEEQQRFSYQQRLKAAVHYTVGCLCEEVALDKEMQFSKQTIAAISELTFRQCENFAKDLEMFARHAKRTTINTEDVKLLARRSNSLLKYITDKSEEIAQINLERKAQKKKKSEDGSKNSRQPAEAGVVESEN

percent co-depleted [1]: 85%
percent co-depleted [2]: 70%
percent co-depleted [3]: < 30%
percent co-depleted [4]: 85%
Substance: FANCM, Q8IYD8 1-2048
